Laboratory results: patent US7378498B2, “Protein encoded by a nucleic acid” (The Johns Hopkins University School of Medicine, priority 1998, dated 2008)

Tests used:
[1] = biological target: binding of mGluR1a or mGluR5 to each of the Homer family members; assay: Synthetic peptide block of mGluR1a/mGluR5 binding to Homer family members; conditions: synthetic 10 mer peptides, read-out: peptide concentration at which approximately half of the binding was blocked
Experimental: This exquisite sensitivity of Homer binding to changes in single amino acids within the Homer-ligand site was confirmed in other Homer-interacting proteins including mGluR1a (Tu et al., 1998), Shank (Tu et al., 1999), and I42 (see below). To further confirm that the interaction was mediated by a direct interaction at the Homer-ligand site (as opposed to a secondary allosteric effect on a remote binding site), synthetic 10-mer peptides with either the wild type, or F-to-R mutation were prepared. The wild type peptide blocked binding of mGluR1a or mGluR5 to each of the Homer family members (Tu et al., 1998). Approximately half of the binding was blocked at a peptide concentration of 3.4 micromolar.
Mutations of mGluR5 were initially tested in the context of a 250aa C-terminal fragment, but were also determined to have an identical effect on binding when placed in the full length mGluR5 protein (Tu et al., 1998). This exquisite sensitivity of Homer binding to changes in single amino acid within the Homer-ligand site has been confirmed in other Homer-interacting proteins including mGluR1a (Tu et al., 1998), Shank (Tu et al., 1999) and I42 (see below). […] Approximately half of the binding was blocked at a peptide concentration of 3.4 micromolar.

[2] = test system: mGluR-evoked Ca^+2 responses in Purkinje cells; assay: Fura-2 ratio imaging of quisqualate-evoked Ca2+ mobilization in transfected cerebellar Purkinje cells; assay type: cell-based, mouse; conditions: mean±SEM; transfected Purkinje cells, quisqualate micropressure pulse, Ca^+2-free external saline
Source text: The truncated Homer protein used lacks the coiled-coil domain and is unable to form a bridge linking the mGluR at the cell surface with intracellular inositol trisphosphate receptors. The truncated form of Homer protein resembled Homer 1a with the exception of 11 residues at the carboxy-terminal. This form of Homer results in enhanced expression of Homer protein as compared with transfection of Homer 1a in heterologous cells. The Homer protein was introduced into Purkinje cells in primary cerebellar cultures and glutamate induced effects on calcium mobilization was measured.
Embryonic mouse cerebellar cultures were prepared and maintained according to the method of Schilling et al. (Schilling et al., Neuron 7:891 1991). At 4-5 DIV, cultures were transfected with plasmids coding for E-GFP (Clontech) and either full-length Homer 1b or an IEG form of Homer 1. The IEG form of Homer 1 was a 186 amino acid amino-terminal fragment of Homer 1b. Plasmids were purified by cesium banding. Three combinations of the plasmids were transfected. Group I (control), 20 Tg of E-GFP and 40 Tg of pRK5 vector; group II, 20 Tg of E-GFP and 40 Tg of pRK5 Homer 1 IEG; group III: 20 Tg of E-GFP and 40 Tg of pRK5 Homer 1b. Plasmid DNA was mixed with gold particles (0.6 micron), and coated onto plastic tubing. DNA was then ballistically transfected into cells according to the manufacturer's protocol (Helios Gene Gun System, BIO-RAD). After transfection, cultures were returned to the incubator and maintained for an additional […] for a total of 7-8 DIV at the time of use for imaging experiments.
Patch electrodes were attached to the somata of GFP-expressing Purkinje cells and a holding potential of −60 mV was applied. Micropressure electrodes (1 Tm tip diameter) were filled with quisqualate (100 Tm in external saline) and were positioned ˜20 Tm away from large-caliber dendrites. Test pulses were delivered using positive pressure (6 psi, 1 sec). Cells were bathed in a solution that contained (in mM) NaCl (140), KCl (5), EGTA (0.2), MgCl2 (0.8), HEPES (10), glucose (10), tetrodotoxin (0.005), and picrotoxin (0.1), adjusted to pH 7.35 with NaOH, which flowed at a rate of 0.5 ml/m The recording electrode contained CsCl (135), HEPES (10), fura-2 K5 salt (0.2), and Na2-ATP (4), adjusted to pH 7.35 with CSOH. Patch electrodes yielded a resistance of 3-5 MA when measured with the internal and external salines described above.
Fura-2 ratio imaging of intracellular free Ca^2+, was accomplished by measuring the background corrected fluorescence ratio at 340 and 380 nm excitation using a cooled CCD camera system, as previously described (Linden et al., J Neurosci 15:5098 1995). Exposure times were 200 msec per single wavelength image. Experiments were conducted at room temperature. Enhanced GFP is weakly excited by illumination in the 380-400 nm spectrum. Based upon the bandpass characteristics of our 340HT15 and 380HT10 excitation filters and the absorption spectrum of enhanced GFP (Clontech), we estimate that <1% of the signal at 340 nm excitation and <5% of the signal at 380 nm excitation is contributed by GFP, even in those cells where the fura/GFP loading ratio is smallest. This could lead to a small (<5%) systemic underestimation of free calcium concentration that should distribute randomly across experimental groups.
Calcium mobilization in the absence of influx was measure by ratio imaging fura-2 in Purkinje cells bathed in Ca^+2-free external saline and stimulated with a micropressure pulse of quisqualate, a metabotropic glutamate receptor agonist (Linden, Neuron 17:483 1996). […] The decay phase of the Ca^+2 response appeared somewhat slower in neurons transfected with the truncated form. […]

## synthetic 10 mer peptide with the wild type Homer-ligand site; possibly SEQ ID NO:14 ALTPPSPFRD (extended region for peptide binding) [wild type peptide]
[1]
  IC50: ~3.4 µM

B1: truncated form of Homer: 186 amino acid amino-terminal fragment of Homer 1b, lacks the coiled-coil domain, expressed by transfection (protein)
chain: MGEQPIFSTRAHVFQIDPNTKKNWVPTSKHAVTVSYFYDSTRNVYRIISLDGSKAIINSTITPNMTFTKTSQKFGQWADSRANTVYGLGFSSEHHLSKFAEKFQEFKEAARLAKEKSQEKMELTSTPSQESAGGDLQSPLTPESINGTDDERTPDVTQNSEPRAEPTQNALPFPHSSAISKHWEAE
modifications: left off: small tags and cut ends
notes: 186 amino acid amino-terminal fragment of Homer 1b, lacks the coiled-coil domain, expressed by transfection
[2]
  mGluR-evoked Ca^+2 response amplitude: 170 ± 9 nM
  mGluR-evoked Ca^+2 response latency: 10.5 ± 1.8 s

B2: Homer 1b: full-length Homer 1b expressed from pRK5 plasmid in Purkinje cells (protein, listed as Homo sapiens)
chain: MGEQPIFSTRAHVFQIDPNTKKNWVPTSKHAVTVSYFYDSTRNVYRIISLDGSKAIINSTITPNMTFTKTSQKFGQWADSRANTVYGLGFSSEHHLSKFAEKFQEFKEAARLAKEKSQEKMELTSTPSQESAGGDLQSPLTPESINGTDDERTPDVTQNSEPRAEPTQNALPFSHSSAISKHWEAELATLKGNNAKLTAALLESTANVKQWKQQLAAYQEEAERLHKRVTELECVSSQANAVHTHKTELNQTIQELEETLKLKEEEIERLKQEIDNARELQEQRDSLTQKLQEVEIRNKDLEGQLSDLEQRLEKSQNEQEAFRNNLKTLLEILDGKIFELTELRDNLAKLLECS
[2]
  mGluR-evoked Ca^+2 response amplitude: 244 ± 17 nM
  mGluR-evoked Ca^+2 response latency: 4.2 ± 0.9 s
